Patent US10829528B2, “Therapeutic agents for neurological and psychiatric disorders” (VIB VZW, priority 2016, dated 2020)

How the values were obtained:
[1] = system: App/Aplp1 dKO primary hippocampal neurons; assay: mEPSCs & mIPSCs in App/Aplp1 dKO primary hippocampal cultures; assay type: cell-based, mouse
Procedure: mEPSCs & mIPSCs are measured in cultured primary hippocampal neurons at baseline and following acute application of agonists. Excitatory terminals selectively express the sushi domain-containing GABABR1a isoform (ref18), where it functions to inhibit neurotransmitter release (ref 24). Acute exposure of primary hippocampal neurons from wild type mice to 30μM baclofen, a GABABR agonist, or 250 nM sAPPα (Fc cleaved) reduces the frequency of miniature excitatory postsynaptic currents (mEPSCs) by 68% (FIG. 8 a,b) and 39% (FIG. 8 c,d), respectively, with no effect on mEPSC amplitude (FIG. 8e). […]
Single neurons from wild type or APP/APLP1 null mutant embryos (E18) were recorded within the large neuronal network at DIV 12-15. […] Spontaneous events were detected using Mini Analysis program (Synaptosoft). mEPSCs and mIPSCs were separated on the basis of their distinct decay kinetics, using a threshold of 5 ms47. Baseline was determined from an average of 60 sec of recordings prior to protein or drug treatment. Effect of treatment was determined from an average of 30 sec recordings after 140 sec of protein or drug treatment.

[2] = molecular target: T1, sushi1 domain of GABABR1a (Homo sapiens, UniProt Q9UBS5); assay: Isothermal titration calorimetry (ITC) with purified sushi1; assay type: binding; conditions: 25° C., read-out: dissociation constant (KD)
T1 construct: made in house
Procedure: (§1) We first determined which GABAB subunit and isoform sAPPα bound. The GABABR is comprised of two subunits, the GABABR1 and the GABABR2 subunit. GABABR1 is present as two main isoforms (1a and 1b), with the only difference between these isoforms being the presence of two protein-binding sushi repeats in the ectodomain of GABABR1a (FIG. 1A-B). […] The sequence of the Sushi domain 1 is […].
All ITC experiments were carried out on a MicroCal iTC200 system. For ITC experiments involving APP constructs expressed in HEK293 cells, the purified GABABR1a-Sushi1 domain, sAPPα, CuBDAcD, AcD and CuBD constructs were buffer-exchanged by size exclusion chromatography in 20 mM Na-HEPES pH 7.0, 150 mM NaCl supplemented with 5 mM CaCl2. Concentrated samples were diluted and degassed before the experiment at the concentrations reported in the FIG. legends. sAPP fragments (all of them at 30 μM) were placed in the MicroCal sample cell and matching buffer was placed in the reference cell. Sushi1 (300 μM) was in the syringe and was injected into the cell in a series of 1 μL injections at 25° C. All the datasets were subtracted with a reference data consisting of serial injections of Sushi1 in the cell, containing buffer only under the same conditions. For ITC experiments involving synthetic APP peptides, the Sushi-1 protein was dialysed overnight to PBS buffer. […]

[3] = molecular target: T1, sushi1 domain of GABABR1a; assay: BioLayer Interferometry binding of sAPPα to sushi domains
Description: as §1

T1 sequence (Q9UBS5 26-97): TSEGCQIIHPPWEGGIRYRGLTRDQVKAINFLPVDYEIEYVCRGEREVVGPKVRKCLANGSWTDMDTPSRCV

Kd [2]: 431 nM
binding of sAPPα to Sushi 1 domain by BioLayer Interferometry [3]: direct binding
B1: sAPPα: soluble amyloid precursor protein α ectodomain; mouse APP695 18-612aa, Fc tag cleaved (protein)
chain: LEVPTDGNAGLLAEPQIAMFCGKLNMHMNVQNGKWESDPSGTKTCIGTKEGILQYCQEVYPELQITNVVEANQPVTIQNWCKRGRKQCKTHTHIVIPYRCLVGEFVSDALLVPDKCKFLHQERMDVCETHLHWHTVAKETCSEKSTNLHDYGMLLPCGIDKFRGVEFVCCPLAEESDSVDSADAEEDDSDVWWGGADTDYADGGEDKVVEVAEEEEVADVEEEEADDDEDVEDGDEVEEEAEEPYEEATERTTSTATTTTTTTESVEEVVRVPTTAASTPDAVDKYLETPGDENEHAHFQKAKERLEAKHRERMSQVMREWEEAERQAKNLPKADKKAVIQHFQEKVESLEQEAANERQQLVETHMARVEAMLNDRRRLALENYITALQAVPPRPHHVFNMLKKYVRAEQKDRQHTLKHFEHVRMVDPKKAAQIRSQVMTHLRVIYERMNQSLSLLYNVPAVAEEIQDEVDELLQKEQNYSDDVLANMISEPRISYGNDALMPSLTETKTTVELLPVNGEFSLDDLQPWHPFGVDSVPANTENEVEPVDARPAADRGLTTRPGSGLTNIKTEEISEVKMDAEFGHDSGFEVRHQK
effect on mEPSC frequency [1]: reduces
effect on mIPSC frequency [1]: reduces
